{"source": "paper PMC3159454", "about": "(Nucleic Acids Research, 2011)", "proteins": {"B1": {"name": "Elk-1 (recombinant, full length) (natural protein, UniProt P19419 1-428, looked up)", "chain": "MDPSVTLWQFLLQLLREQGNGHIISWTSRDGGEFKLVDAEEVARLWGLRKNKTNMNYDKLSRALRYYYDKNIIRKVSGQKFVYKFVSYPEVAGCSTEDCPPQPEVSVTSTMPNVAPAAIHAAPGDTVSGKPGTPKGAGMAGPGGLARSSRNEYMRSGLYSTFTIQSLQPQPPPHPRPAVVLPSAAPAGAAAPPSGSRSTSPSPLEACLEAEEAGLPLQVILTPPEAPNLKSEELNVEPGLGRALPPEVKVEGPKEELEVAGERGFVPETTKAEPEVPPQEGVPARLPAVVMDTAGQAGGHAASSPEISQPQKGRKPRDLELPLSPSLLGGPGPERTPGSGSGSGLQAPGPALTPSLLPTHTLTPVLLTPSSLPPSIHFWSTLSPIAPRSPAKLSFQFPSSGSAQVHIPSISVDGLSTPVVLSPGPQKP"}}, "target": "the molecule itself", "experiment": "SEC", "data": [{"protein": "B1", "values": [{"measurement": "stoichiometry N", "result": 2}]}]}
